# Laboratory results taken from the DeepSol protein solubility set.
# Test: soluble on expression in E. coli; label from the status in PepcDB or PDB records
row,Sequence,soluble on expression in E. coli
1,MNFAQVKDYLVDLQNRIVTGLEQVDGQSFRRDTWDRPEGGGGTSCVIEEGNVLERGGVNFSHVFGKGLPASATAARPELAGRAFEAAGVSLVLHPRNPYAPTVHMNVRFFAATKEGAEPVWWFGGGMDLTPYYGFEEDAVHFHQACKDALQPSGEEYYPRFKKWCDEYFYLKHRKEPRGIGGVFFDDLNQPDFATCFNLTRSVGDHFLAAYVPILQKRRDLPYGERERDFQAYRRGRYVEFNLVWDRGTLFGLQSGGRTESILMSLPPVVKWRYDWSPAAGSPEAKLYTDFLTGRDWLPLGLEHHHHHH,soluble
2,MNFPISTIRIGGWVVVAKNPDDIVAKFYFAKKKLIWEFLFGEPETNTLRLKRKIEIQWNDVSSFEESISSRDETGILKIELKKRPTFFIETNPQAGKHTQWKQLDHDFTGDHASNYRRHTLHFPPGVLQKNLEKLVTDSFWSKLYEVPFPVHESRYFDSGFENNSSRNSHSHTVGFNVNNGPQHHFSQGIGGVGVGEGNFSMANGGWQRNSYSPVNSLNYNTANEFFGMQATPPSSQVVNEHYNTQNDFTGSQFGYHMNQDEIQKILESQAYAVPDTQTKLMSSAMNNVPKYPQAGSCLESMLFWYEHRRRFQQ,soluble
3,MNGFARRTEQKKQAIKQAVLELLQKIRDPREVTIQEIAKQAHVSPVTIYNYFGSKENLIRETLLDDVVRQVDEYEAFLKQAGSFEEKVKHTIFQEVKLFKEGWTDVMLRWMQEDEEFRRSIELLNETRVLPLVVDMIREAQKKGEVDPRLSIEALLLYLNGWRELSEKIPASLYNERLVEDMVRLFFYGIKGETR,not soluble
4,MNGMCWIASYPKAGGHWLRCMLTSYVTGEPVETWPGIQAGVPHLEGLLRDGEAPSADPDEQVLLATHFTADRPVLRFYRESTAKVVCLIRNPRDAMLSLMRMKGIPPEDVEACRKIAETFIADEGFSSVRIWAGEGSWPENIRSWTDSVHESFPNAAVLAVRYEDLRKDPEGELWKVVDFLELGGRDGVADAVANCTLERMREMEERSKLLGLETTGLMTRGGKQLPFVGKGGQRKSLKFMGDDIEKAYADLLHGETDFAHYARLYGYAE,soluble
5,MNGPEVLRFAANLYRVPVEGGYFLVDAGLPWEARRLLSLLQEPPRLLFLTHHHLDHAGGARALWERFRVPVLAHPQEWAYLTKRKPRPPLPLPLLGKGARQLGADDPGGGPRPRGGRGWRSSASGWSTSRGTPLGQVGLFREGVLLAGNALRGRGLPPRFINEDHALARRTVRKILELGVKRVYLGHGGPLSGEEVAAIARRLGV,soluble
6,MNGWNFQELKETPSQTGGPYVHIGLLPKQANIEVFEHNLDNNLVQDNTQGQRIRLEGQVFDGLSLPLRDVLIEIWQADTNGVYPSQADTQGKQVDPNFLGWGRTGADFGTGFWSFNTIKPGAVPGRKGSTQAPHISLIIFARGINIGLHTRVYFDDEAEANAKDPVLNSIEWATRRQTLVAKREERDGEVVYRFDIRIQGENETVFFDI,soluble
7,MNHPAHHGPTVTPKRRHPDSTGAAPVGIVIATRNRRASLAVTVRNLLALPERPDVLVVDNASTDDTRAMLARDFPQVRVLPLPYNRGALARTHGVRALDTPYVAFSDDDSWWAPGALGAAARHFDDHPRLGLLSARTLVGPGDAADPLNDLLADSPLGTATDLPGTQVLGFLGCAAVARRTAYLDAGGYHPLLFFGGEETLLAYDLAARGWGVTHCPDVIAHHHPHPRPRTGRPAVVRRNALLTAWLRRPLPHALARTRALAADARRDPHARHALRETLTRLPAALRARRPLPPHVERAARLLDGADGPDGPGGAVSLEHHHHHH,soluble
8,MNHRDKQIDSGSGSGENRRTYDCDICKRGFTNPQALGGHNNIHRRERERYPSSSSSSHSFPFSLPLPSQSPSSSTNFTNPPPYFPTIESYLHQGSQPPINPSHNTQYFGSSSSSRGGGRFAQGASHDLNLSLGLGSMNEDDDTHRSPPETGGSQPQDGDLDLDLRLGGHRHH,soluble
9,MNINRFVLAAPGSGSGKTTVAALLCLALRARGLSVQPFKLGPDYLDPTHLTRAAGRETRNLDSFLLAPERLQTLFARAAAQAEVCVIEGVMGLYDGRDPGSDEHSTAALARLLGARVVLVIDAGGMARTVAAVAAGLRDFGEGVNVAGVILNRVGSVRHAELCAEALTQVGLACLGFLLQDDALRLPSRHLGLLSAQQASWDEAAALAAARYLDLDALLNVTRAPDLSSSSSMSPPPSTRIAYAFDSAFHFYYPDALDELRSCGAELVPFSPLEDAGVPEDVGGLLLGGGYPEAHAAELAANERMRRSVRAFAASGRPVVGECGGLMYLSETLEDENGVTHEMCGVVPYRTRMARRLSLGYRDALSLADSPLLPAGTAIRGHEFHFSTLTHEPTHPAYRWRTHDGQEVAEGYARGNVLASYLHLHYGGFPAVAARLVERCQLEHHHHHH,not soluble
10,MNIRCARVDDLMSMQNANLMCLPENYQMKYYFYHALSWPQLSYIAEDHKGNVVGYVLAKMEEDPGEEPHGHITSLAVKRSYRRLGLANKMMDQTARAMVETYNAKYVSLHVRVSNRAALNLYKNTLKFEIVDTEPKYYADGEDAYAMRRDLAKWAEERNIEPADREAYTTAKTTDDKKKNRS,not soluble
11,MNIRQAKTSDAAAIAPLFNQYREFYRQASDLQGAEAFLKARLENHESVILIAEENGEFIGFTQLYPTFSSVSMKRIYILNDLFVVPHARTKGAGGRLLSAAKDYAGQNGAKCLTLQTEHHNRKARSLYEQNGYEEDTGFVHYCLNVPAK,soluble
12,MNISPKAIKVRNIWIGGTEPCICAPVVGEDDRKVLREAEEVCRKQPDLLEWRADFFRAIDDQERVLATANGLRNIAGEIPILFTIRSEREGGQPIPLNEAEVRRLIEAICRSGAIDLVDYELAYGERIADVRRMTEECSVWLVVSRHYFDGTPRKETLLADMRQAERYGADIAKVAVMPKSPEDVLVLLQATEEARRELAIPLITMAMGGLGAITRLAGWLFGSAVTFAVGNQSSAPGQIPIDDVRTVLSILQTYSR,soluble
13,MNITQILSQELSATAAQITAAVELLDDGATVPFIARYRKEATGGLDDTQLRRLAERLQYLRELEERKAVVLKSIEEQGKLSDDLRAQIEAADNKTALEDLYLPYKPKRRTKAQIAREHGLQPLADVLLAEQSQDVEAAAQGYLNENVPDAKAALDGARAILMEQFAEDAELIGTLRDKLWNEAEIHAQVVEGKETEGEKFSDYFDHREPVRTMPSHRALAVLRGRNEGVLNIALKYQPDDTPITRQSEYEQIIACRFKVSDGHKWLRDTVRLTWRAKIFLSLELEALGRLKEAADTDAITVFARNLKDLLLVAPAGRLTTLGLDPGYRNGVKCAVVDDTGKLLDTVIVYLHQENNMLATLSRLIKQHGVKLIAIGNGTASRETDKIAGELVRGMPEMGLHKIVVSEAGASIYSASELAAREFPDLDVSLRGAVSIARRLQDPLAELVKIDPKSIGVGQYQHDVNQNQLAKSLDAVVEDCVNAVGVDVNTASAPLLARISGLNQTLAQNIVAYRDENGAFDSRKKLLKVPRLGEKTFEQAAGFLRINGGKEPLDASAVHPEAYPVVAKMLAQQGISAAELIGNRERVKQIKASDFTDERFGLPTILDILSELEKPGRDPRGEFQTASFAEGIHEISDLQVGMILEGVVSNVANFGAFVDIGVHQDGLVHISALSNKFVQDPREVVKAGDVVKVKVLEVDAARKRIALTMRLDDEPGGAKHKMPSENRSRERTAGRKPQRNDRAPANSAMADAFAKLKR,soluble
14,MNIVSTSVALLLAAASAEVENRKSSNATEVNMTETAQIENHPYVGMWVTGDGHIRQELLPNGRYDEARGKRKSAYQGRYEVKGNHIDYWDDTGFTADGEFVDDVLHHGGMIFYRQK,not soluble
15,MNIWGPHIVQARRAVAIFCRGLLVLMPALSLLGLTAEAEPRSADDRQRIAAVTAPATGFTVAEPFEQLPGGAATVSGDLGRDAFSRPSANMSFERELDFHLGQALFDKLWVASPSSTKASDGLGPLYNARSCQACHIRDGRGQVSGGPGLVLRIGRVRGDGVLPDPLFGLQIQDSAVPGLRPEARIAVSQAETEVTLNGGEVAVLRKPRYRLDAAEGTLHAESTLSPRLAPQMIGLGLLEAIPEAEILARADPDDRDGDGISGRPNRVHDPETGQEALGRFGWKAGAASVLDQTAAAFASDIGISSPLRPAPWGDCTELQVECRAALHGDGDPRGAEIDGPALALTAFYSRNLAVPARRDVDDPDVLRGKRVFYGIGCPACHVPKHVTAQLSDQPEQSFQLIWPYTDLLLHDMGAGLADELPQGLASGREWRTAPLWGIGLTEQVSGQARFLHDGRARTLLEAVLWHGGEAAAQRDRVIALAPEDRAALIRFLESL,not soluble
16,MNKERQDLSGLEAVWLFGYGSLIYKVDFPYLERAAASIQGWSRRFWQGSHDHRGTPEAPGRVLTLTETPGEECTGMAYKVSPDVFEHLDHREKNGYLRFTTPMSFRDGSQQEGLVYIATEDNEAFLGEATASEIASHIARSSGPSGPNAEYLVKLQLALQQLGVNDPHITQVYEALMADRASLEHHHHHH,soluble
17,MNKLLSYYQKELAFLRKQGIEFAKKYPKVARRLGYNQGGSEDPHVQRLTESFAFLSSKIHQRLDEDLPELMEALLRNLAPQFLYNYPSSCIVSFEPDRKSSGITSTYRVPSGTSLYSRYKYKTICQFRTVYPLTIVPATVNKARIHYDNSSSLWKIELNLDVFDGANFSLDFVRFYLNGPATVTGIIYTLLCDEVDNIVLQRNNDVLYDISANISGAGFYESEVTLPQKGNVSYIHNLILDYFSFPERFNFIDIEFDSGIELCSGDSVRIEITLKSSAEKYEPDRIERNVSERLFKVNCSPVVNLFEKKTEPLRLSDGQDEYQVNTDLYSRNEVLIWDINKVTLHRYENDIVKQFPLKNLFGLEHSVIKQSCNIFWHSSCYRSSSERGNFEESVYIRLSDDGGAQSCIMTGDVLSIDAICTNGNIPSSINNGDPDGDFDCDIDIAQLRITALNRPSRMLPAMALKGMNWRIVSQLSLNFVLLSGTDGAMKLREMLSIYNYNNNHSISIFIEWIKELQITPVSSRLPGIYPPVTARGIDITVTLSKDADMHPECFMFCSFLDHFLGLHAPVNSFTRMITVIEHEEHTRRVWPIRAGKLTWL,not soluble
18,MNKPVAIFLMGPTASGKTDLAIALRKQLPVEVISVDSALIYKEMDIGTAKPTAAELAQAPHRLIDILDPKESYSAMHFHADALHAMADITASGRIPLLVGGTMLYYKALLEGLSPLPSANEHIRTEIEAHANQYGWASLHQQLTQIDPLAASRINANDSQRINRALEVFYLTGKNLTELTAQQGECLPYQVLQFAIAPQERAVLHQRIEQRFHKMMELGFLTEVEKLYARGDLHPDLPAIRCVGYRQMWQHLAGEISLDEAIYKGICATRQLAKRQLTWLRGWRSEITWLDSLDPTSSQEKMIQNLEQNFIKLLEHHHHHH,soluble
19,MNKQLLSCSLKSGKQVTMVVASVATDGVDQQVEISYYDQKVIGNGSFGVVFLAKLSTTNEMVAIKKVLQDKRFKNRELQIMRKLNHPNIVKLKYFFYSSGEKKDELYLNLILEYVPETVYRVARHYSKQRQQIPMIYVKLYMYQLLRSLAYIHSIGICHRDIKPQNLLIDPESGVLKLCDFGSAKYLVRNEPNVSYICSRYYRAPELIFGATNYTNSIDVWSAGTVMAELLLGQPIFPGDSGVDQLVEIIKVLGTPTREQIQSMNPNYKEFKFPQIKAHPWNKVFRVHTPAEAIDLISKIIEYTPTSRPTPQAACQHAFFDELRNPDARLPSGRPLPTLEMDGPMGTGEVSTTSGDVAGPSA,not soluble
20,MNKSESRYYATAARMDEAFLTLLAKKDFEYITVKEICEVAGVNRSTFYLHYETMSDLLSESISRINEQFLAYMEKDSDAFSAKLRNCPRDELYLITPDYLTPYLSYIKNNKRLFRTATENAAVLGMDKSYDRMFRHVFTPILDRYGVLQQDRPYIMAFYIRGLMAIISEWLKNDCTDSITYVTGVIQQCVKMPQSETMNAV,not soluble
